From the supplement of paper PMC10567573

B1: VPS39 (parent)
chain: TTLLKCYLHTNVALVAPLLRLENN

Variants of: B1
Assay: protein stability index of a GFP-peptide fusion (GPS, HEK-293T) (PSI 1-6); higher = more stable
Conditions: c terminus: a fixed tail appended
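Also: lentivirally expressed fusions sorted by FACS into six bins by GFP to DsRed ratio, PSI derived from sequencing read proportions per bin multiplied by bin number.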

Compared with C6N, C6K is higher in protein stability index: 1.91 for the first, 2.11 for the second.

Compared with C6T, C6P is lower in protein stability index: 2.56 for the first, 2.19 for the second.

First: C6Q
Second: C6I
The protein stability index of the first is higher: 3.64 for the first, 1.15 for the second.

First: C6A
Second: C6L
The protein stability index of the first is lower: 1.25 for the first, 3.27 for the second.

First: C6E
Second: T2A
The protein stability index of the first is higher: 2.38 for the first, 1.61 for the second.

Going from T2Q to T2L, the protein stability index rises from 2.1 to 3.5.

First: T2R
Second: T1I
The protein stability index of the first is higher: 2.85 for the first, 2.46 for the second.

First: T1K
Second: T1C
The protein stability index of the first is higher: 3.52 for the first, 1.07 for the second.

Compared with T1M, T1Y is higher in protein stability index: 2.75 for the first, 3.27 for the second.

Going from T1A to L14Q, the protein stability index falls from 3.76 to 1.68.

Compared with L14I, L14A is lower in protein stability index: 3.28 for the first, 2.83 for the second.

Compared with L14Y, L14F is lower in protein stability index: 3.67 for the first, 1.55 for the second.

Going from L14E to L14T, the protein stability index rises from 1.57 to 2.5.

Going from L14H to L14V, the protein stability index falls from 3.13 to 2.25.

First: L14M
Second: L14D
The protein stability index of the first is higher: 2.27 for the first, 1.5 for the second.

Going from L14N to L14P, the protein stability index falls from 2.16 to 1.9.

First: L21W
Second: L21Y
The protein stability index of the first is higher: 2.05 for the first, 1.84 for the second.

First: L21S
Second: L21G
The protein stability index of the first is higher: 1.63 for the first, 1.6 for the second.

Going from L21T to L21K, the protein stability index falls from 2.9 to 1.74.

First: L21P
Second: L21I
The protein stability index of the first is higher: 2.73 for the first, 2.16 for the second.

Compared with L21E, L21C is higher in protein stability index: 2.09 for the first, 3.59 for the second.

First: L21N
Second: L21Q
The protein stability index of the first is higher: 3.2 for the first, 2.14 for the second.

Compared with L21D, L21F is higher in protein stability index: 1.59 for the first, 3.04 for the second.

First: L21M
Second: L21H
The protein stability index of the first is higher: 3.38 for the first, 1.51 for the second.

Compared with L3I, L3D is higher in protein stability index: 2.18 for the first, 2.22 for the second.

First: L3N
Second: L3T
The protein stability index of the first is higher: 3.03 for the first, 2.58 for the second.

First: L3W
Second: L3R
The protein stability index of the first is higher: 3.19 for the first, 2.57 for the second.

Compared with L3G, L3Y is higher in protein stability index: 1.84 for the first, 3.01 for the second.

First: L3K
Second: L3P
The protein stability index of the first is higher: 2.1 for the first, 1.96 for the second.

First: L3Q
Second: L3A
The protein stability index of the first is lower: 3.31 for the first, 3.88 for the second.

Going from L8A to L8E, the protein stability index falls from 2.49 to 1.85.

Compared with L8H, L8R is higher in protein stability index: 1.82 for the first, 2.35 for the second.

First: L8F
Second: L8P
The protein stability index of the first is higher: 4.45 for the first, 1.13 for the second.

Going from L8I to L8S, the protein stability index falls from 3.7 to 1.44.

Compared with L8Q, L8D is lower in protein stability index: 2.14 for the first, 1.75 for the second.

Compared with L8K, L8G is higher in protein stability index: 1 for the first, 1.57 for the second.

First: L8M
Second: L8N
The protein stability index of the first is higher: 4.41 for the first, 1.98 for the second.

Going from L8V to L8T, the protein stability index falls from 2.7 to 2.5.

Going from L8W to L8C, the protein stability index falls from 2.17 to 1.07.

Compared with P17R, P17M is lower in protein stability index: 1.38 for the first, 1.17 for the second.

Going from P17L to P17E, the protein stability index rises from 2.13 to 4.79.

A13W and A13V are the same in protein stability index: 3.55 for the first, 3.55 for the second.

First: A13D
Second: A13K
The protein stability index of the first is lower: 1.36 for the first, 2.63 for the second.

First: A13M
Second: A13R
The protein stability index of the first is higher: 2.14 for the first, 1.57 for the second.

Compared with A13P, R20I is higher in protein stability index: 2.2 for the first, 3.11 for the second.

Compared with R20V, R20P is higher in protein stability index: 2.63 for the first, 3.33 for the second.

First: R20G
Second: R20T
The protein stability index of the first is lower: 2.65 for the first, 3.38 for the second.

Going from R20K to R20E, the protein stability index falls from 3.52 to 1.83.

Compared with R20Y, R20D is lower in protein stability index: 3.2 for the first, 2.23 for the second.

First: R20W
Second: R20M
The protein stability index of the first is higher: 2.11 for the first, 1.5 for the second.

Compared with H9P, H9Y is higher in protein stability index: 1.59 for the first, 1.63 for the second.

Compared with H9T, H9F is lower in protein stability index: 3.1 for the first, 2.82 for the second.

Compared with H9N, K5H is lower in protein stability index: 3.08 for the first, 2.48 for the second.

Going from K5S to K5N, the protein stability index falls from 4.1 to 2.49.

Going from K5P to K5T, the protein stability index rises from 1.88 to 2.57.

First: K5E
Second: K5F
The protein stability index of the first is higher: 2.22 for the first, 1.07 for the second.

Compared with A16W, A16T is higher in protein stability index: 1.72 for the first, 2.94 for the second.

Compared with A16H, A16N is lower in protein stability index: 3.78 for the first, 2.16 for the second.

Compared with A16M, A16D is higher in protein stability index: 2.02 for the first, 3.39 for the second.

Going from A16E to A16S, the protein stability index rises from 2.57 to 5.08.

First: A16P
Second: A16G
The protein stability index of the first is higher: 3.28 for the first, 2.87 for the second.

Going from A16R to N11C, the protein stability index rises from 2.05 to 2.59.

Compared with N11K, N11D is higher in protein stability index: 2.86 for the first, 4 for the second.

Compared with N11H, N11G is lower in protein stability index: 3.65 for the first, 1.33 for the second.

Going from N11Q to N11I, the protein stability index falls from 4.1 to 1.85.

Compared with E22C, E22M is higher in protein stability index: 1.92 for the first, 2.31 for the second.

First: E22N
Second: E22R
The protein stability index of the first is lower: 2.13 for the first, 2.64 for the second.

Compared with E22L, E22K is lower in protein stability index: 2.73 for the first, 1.79 for the second.

First: E22I
Second: E22D
The protein stability index of the first is lower: 1.99 for the first, 2.71 for the second.

Going from E22A to E22H, the protein stability index rises from 1.66 to 2.49.

First: L4N
Second: L4R
The protein stability index of the first is lower: 1.25 for the first, 2.48 for the second.

Compared with L4V, L4F is lower in protein stability index: 3.82 for the first, 3.81 for the second.

Compared with L4T, L4W is lower in protein stability index: 2.83 for the first, 1.78 for the second.

Compared with L4K, L4D is lower in protein stability index: 2.01 for the first, 1.35 for the second.

First: L4S
Second: L4H
The protein stability index of the first is higher: 3.47 for the first, 2.36 for the second.

Compared with L4M, L4P is lower in protein stability index: 3.92 for the first, 1.74 for the second.

Going from L4Q to L4G, the protein stability index rises from 1.92 to 3.33.

Going from T10E to T10H, the protein stability index rises from 1.46 to 2.79.

Going from T10L to T10G, the protein stability index rises from 2.35 to 3.27.

Going from T10Y to T10R, the protein stability index rises from 2.73 to 3.11.

Compared with T10W, L18P is higher in protein stability index: 1.94 for the first, 2.27 for the second.

Going from L18Y to L18E, the protein stability index falls from 2.16 to 1.55.

Compared with L18M, L18F is lower in protein stability index: 3.28 for the first, 2.06 for the second.

L18K gave a protein stability index of 2.08.
